Assay results reported in patent publication US20200308299A1, “ANTI-GPC-1 ANTIBODY” (National University Corporation Kochi University, priority 2017, published 2020).

What was measured:
TE14 cells = test: ADC assay combining anti-GPC-1 antibody and MMAF binding secondary antibody, TE14 cells; format: cell-based
Procedure: FIG. 1 depicts a schematic diagram of an ADC used in an assay. This Example used a secondary antibody (MORADEC) to the anti-GPC1 antibody made in Example 1, to which an anticancer agent (MMAF) was bound via a linker.
2000 TE14 cells were added to a 96-well plate at 80 μl. The cells were cultured overnight at 37° C. in a 5% CO2 incubator. The next day, 10 μl of an anticancer agent bound secondary antibody and 10 μl of a primary antibody concentrated 10-fold relative to the final concentration was added to each well, so that the total amount was 100 μl. The cells were cultured for 6 days at 37° C. in a 5% CO2 incubator. The cell viability was measured by using a CellTiter-Glo Luminescent Cell Viability Assay reagent to detect the amount of ATP. RPMI1640+10% FBS+1% PS was used as the medium. The final concentrations of the primary antibody were 0, 0.004, 0.0156, 0.0625, 0.25, and 1.0 nM. 2 μg/ml of Fab-aMFc-CL-MMAF (model number: AM202AF-50, Moradec) was used as the secondary antibody.

TE8 cells = test: ADC assay combining anti-GPC-1 antibody and MMAF binding secondary antibody, TE8 cells; format: cell-based; settings: primary antibody plus MMAF secondary antibody
LLC-control-7 cells = test: In vitro ADC assay, LLC-control-7 cells; format: cell-based; settings: does not express mouse GPC-1, 72 hours
Procedure: An mGPC1 expression vector (pcDNA3.1-mGPC1) and control vector (pcDNA3.1V5/His) were transfected using Lipofectamine® 2000 into LLC cell strain (mouse lung cancer cell strain). Cells subjected to gene transfer were selected by adding G418 to a medium, and the formed colony was picked up. The expression of mGPC1 was analyzed by FACS using anti-GPC1 antibody clone 01a033. LLC-mGPC1-16 cells were established as an mGPC1 stable expression strain, and LLC-control-7 was established as the control.
Preparation of a conjugate of mouse anti-glypican-1 mAb (01a033), mouse IgG2a (biolegend #400224) as a control, and mc-vc-PAB-MMAF was commissioned to MORADEC. An anticancer agent was conjugated to a cysteine residue via a cleavable linker. The DAR (drug-antibody ratio) was as follows. […]
RPMI1640+10% FBS+100 U/ml penicillin+100 μg/ml streptomycin was used as the medium. […] (3) After 72 hours of culturing, CellTiter-Glo™ Luminescence Cell Viability Assay reagent (Promega) was added and mixed at 100 μL/well. (4) Measurements were taken with a plate reader. […]
The IC50 values were calculated from the following equation (Hossain M M, Hosono-Fukao T, Tang R, Sugaya N, van Kuppevelt T H, Jenniskens G J, Kimata K, Rosen S D, Uchimura K (2010) Direct detection of HSulf-1 and HSulf-2 activities on extracellular heparan sulphate and their inhibition by PI-88. Glycobiology […]: 175-186.) […]

ME180 cell strain = test: In vivo efficacy test on GPC1 ADC using cervical cancer cell strain ME180 in SCID mice; design: species or system mouse
Procedure: Specifically, 1.0×10^6 cells of ME180 cell strain were subcutaneously grafted into female SCID mice. […] The tumor volume and body weight were measured on day 0, day 4, day 8, day 12, day 16, day 20, day 24, day 28, and day 32.
After subcutaneous tumorigenesis of ME180, (1) PBS, (2) control ADC at 10 mg/kg, and (3) GPC1-ADC at 10 mg/kg were administered once into the tail vein. The tumor was extracted after 24 hours. After deparaffinization of a section of a paraffin embedded tissue, the slice was dehydrated with alcohol. Immunohistochemical staining on Phospho-Histon H3 (Ser10) was performed by using an anti-Phospho-Histon H3 (Ser10) antibody (Cell Signaling Technology: #9701) and ChemMate Envision kit HRP 500T (Dako: K5007).

[1] = primary antibody plus MMAF secondary antibody

Molecule | ADC activity (TE14 cells; primary antibody plus Fab-aMFc-CL-MMAF secondary antibody 2 μg/ml, 6 days) | EC50 values against TE14 cells (TE14 cells; [1]) | antitumor effect on TE14 (TE14 cells; [1]) | antitumor effect on TE8 (TE8 cells) | effect of suppressing growth against LLC-control-7 (LLC-control-7 cells) | antitumor effect (tumor volume, tumor weight day 32) (ME180 cell strain; 1 mg/kg iv day 0, 4, 8, 12) | antitumor effect (tumor volume, tumor weight day 32) (ME180 cell strain; 3 mg/kg iv day 0, 4, 8, 12) | antitumor effect (tumor volume, tumor weight day 32) (ME180 cell strain; 10 mg/kg iv day 0, 4, 8, 12) | tumor volume (ME180 cell strain; 10 mg/kg iv day 0, 4, 8, 12) | change in the body weight (ME180 cell strain; any dosage tested (1, 3, 10 mg/kg)) | G2/M phase arrest in tumor tissue (Phospho-Histon H3 (Ser10) staining) (ME180 cell strain; single tail vein dose 10 mg/kg, tumor extracted after 24 hours)
clone 01a033 (antibody) heavy: QVQLKQSGPELVKPGASVKISCKASGYSFTGYYMHWVKQSPEKSLEWIGEINPSTGDTTYNQKFKAKATLTVDKSSSTAYMQLKSLTSEDSAVYYCAREKRDDGVFAYWGQGTLVTVSSAKTTAPSVYPLAPVCGDTTGSSVTLGCLVKGYFPEPVTLTWNSGSLSSGVHTFPAVLQSDLYTLSSSVTVTSSTWPSQSITCNVAHPASSTKVDKKIEPRGPTIKPCPPCKCPAPNLLGGPSVFIFPPKIKDVLMISLSPIVTCVVVDVSEDDPDVQISWFVNNVEVHTAQTQTHREDYNSTLRVVSALPIQHQDWMSGKEFKCKVNNKDLPAPIERTISKPKGSVRAPQVYVLPPPEEEMTKKQVTLTCMVTDFMPEDIYVEWTNNGKTELNYKNTEPVLDSDGSYFMYSKLRVEKKNWVERNSYSCSVVHEGLHNHHTTKSFSRTPGK light: DIVMSQSPKSMSMSVGERVALSCKASENVGTYVSWYQQKPEQSPKLLIYGASNRYTGVPDRFTGSGSATDFTLTISSVQAEDLADYYCGQSYSYPLTFGAGTKLELKRADAAPTVSIFPPSSEQLTSGGASVVCFLNNFYPKDINVKWKIDGSERQNGVLNSWTDQDSKDSTYSMSSTLTLTKDEYERHNSYTCEATHKTSTSPIVKSFNRNEC | highest ADC activity | excellent EC50 values | particularly potent antitumor effect | particularly potent antitumor effect | low effect of suppressing growth |  |  |  |  |  | 
GPC1 ADC (conjugate) heavy: QVQLKQSGPELVKPGASVKISCKASGYSFTGYYMHWVKQSPEKSLEWIGEINPSTGDTTYNQKFKAKATLTVDKSSSTAYMQLKSLTSEDSAVYYCAREKRDDGVFAYWGQGTLVTVSSAKTTAPSVYPLAPVCGDTTGSSVTLGCLVKGYFPEPVTLTWNSGSLSSGVHTFPAVLQSDLYTLSSSVTVTSSTWPSQSITCNVAHPASSTKVDKKIEPRGPTIKPCPPCKCPAPNLLGGPSVFIFPPKIKDVLMISLSPIVTCVVVDVSEDDPDVQISWFVNNVEVHTAQTQTHREDYNSTLRVVSALPIQHQDWMSGKEFKCKVNNKDLPAPIERTISKPKGSVRAPQVYVLPPPEEEMTKKQVTLTCMVTDFMPEDIYVEWTNNGKTELNYKNTEPVLDSDGSYFMYSKLRVEKKNWVERNSYSCSVVHEGLHNHHTTKSFSRTPGK light: DIVMSQSPKSMSMSVGERVALSCKASENVGTYVSWYQQKPEQSPKLLIYGASNRYTGVPDRFTGSGSATDFTLTISSVQAEDLADYYCGQSYSYPLTFGAGTKLELKRADAAPTVSIFPPSSEQLTSGGASVVCFLNNFYPKDINVKWKIDGSERQNGVLNSWTDQDSKDSTYSMSSTLTLTKDEYERHNSYTCEATHKTSTSPIVKSFNRNEC |  |  |  |  |  | slight antitumor effect | slight antitumor effect | significant antitumor effect | tumor volume was significantly reduced | significant change in the body weight was not observed | resulted in G2/M phase arrest
